Source: patent US20030068675, “Position dependent recognition of GNN nucleotide triplets by zinc fingers” (published 2003)

Legend:
Assay in all cases: EMSA
Settings in all cases: tags: MBP fusion
[1] = molecular target: T1, ZFP SBS#410 (synthetic)
T1 chain: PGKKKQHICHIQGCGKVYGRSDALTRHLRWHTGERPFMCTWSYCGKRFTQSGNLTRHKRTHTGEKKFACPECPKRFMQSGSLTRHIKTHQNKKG
Protocol: (§1) Affinity is measured by titrating purified protein against a fixed amount of labeled double-stranded oligonucleotide target. The target typically comprises the natural binding site sequence flanked by the 3 bp found in the natural sequence and additional, constant flanking sequences. The natural binding site is typically 9 bp for a three-finger protein and 2×9 bp +intervening bases for a six finger ZFP. […] For the assay the target is added at a concentration of 1 nM or lower (the actual concentration is kept at least 10-fold lower than the expected dissociation constant), purified ZFPs are added at various concentrations, and the reaction is allowed to equilibrate for at least 45 min. In addition the reaction mixture also contains 10 mM Tris (pH 7.5), 100 mM KCl, 1 mM MgCl2, 0.1 mM ZnCl2, 5 mM DTT, 10% glycerol, 0.02% BSA. (NB: in earlier assays poly d(IC) was also added at […].) The equilibrated reactions are loaded onto a 10% polyacrylamide gel, which has been pre-run for 45 min in Tris/glycine buffer, then bound and unbound labeled target is resolved by electrophoresis at 150V.

[2] = molecular target: ZFP SBS#413 (synthetic)
ZFP SBS#413 (synthetic), sequence (chain, as listed by the source): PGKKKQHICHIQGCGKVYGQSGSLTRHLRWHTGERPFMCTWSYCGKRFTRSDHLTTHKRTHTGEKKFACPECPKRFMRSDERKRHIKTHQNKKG
Protocol: as §1

[3] = molecular target: T2, ZFP SBS#501 (synthetic)
T2 chain: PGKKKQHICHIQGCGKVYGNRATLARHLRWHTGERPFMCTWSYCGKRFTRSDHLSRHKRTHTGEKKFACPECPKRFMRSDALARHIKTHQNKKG
Protocol: as §1

[4] = molecular target: T3, ZFP SBS#386 (synthetic, UniProt P08047)
T3 chain: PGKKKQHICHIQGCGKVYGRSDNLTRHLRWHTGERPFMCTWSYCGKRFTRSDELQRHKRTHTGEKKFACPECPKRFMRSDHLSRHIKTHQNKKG
Protocol: as §1

[5] = molecular target: T4, ZFP SBS#385 (synthetic)
T4 chain: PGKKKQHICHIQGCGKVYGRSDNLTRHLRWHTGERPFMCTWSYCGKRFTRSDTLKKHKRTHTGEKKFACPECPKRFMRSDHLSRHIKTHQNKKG
Protocol: as §1

[6] = molecular target: T5, ZFP SBS#493 (synthetic, UniProt P08047)
T5 chain: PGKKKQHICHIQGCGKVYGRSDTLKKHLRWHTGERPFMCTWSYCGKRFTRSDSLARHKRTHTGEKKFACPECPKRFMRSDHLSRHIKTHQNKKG
Protocol: as §1

[7] = molecular target: ZFP SBS#387 (synthetic)
ZFP SBS#387 (synthetic), sequence (chain, as listed by the source): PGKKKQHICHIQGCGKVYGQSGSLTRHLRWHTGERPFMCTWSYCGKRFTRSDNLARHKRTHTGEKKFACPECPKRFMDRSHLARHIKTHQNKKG
Protocol: as §1

[8] = molecular target: ZFP SBS#388 (synthetic)
ZFP SBS#388 (synthetic), sequence (chain, as listed by the source): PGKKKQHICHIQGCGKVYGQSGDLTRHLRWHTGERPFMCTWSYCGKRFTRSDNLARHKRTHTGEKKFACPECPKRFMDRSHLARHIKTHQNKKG
Protocol: as §1

[9] = molecular target: ZFP SBS#412 (synthetic)
Protocol: as §1

[10] = molecular target: ZFP SBS#509 (synthetic)
ZFP SBS#509 (synthetic), sequence (chain, as listed by the source): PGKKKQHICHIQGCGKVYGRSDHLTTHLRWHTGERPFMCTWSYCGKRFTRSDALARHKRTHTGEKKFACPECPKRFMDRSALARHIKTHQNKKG
Protocol: as §1

[11] = molecular target: T6, ZFP SBS#379 (synthetic)
T6 chain: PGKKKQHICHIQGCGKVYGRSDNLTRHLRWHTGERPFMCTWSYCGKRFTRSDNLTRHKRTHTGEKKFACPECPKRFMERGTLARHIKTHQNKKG
Protocol: as §1

[12] = molecular target: T7, ZFP SBS#494 (synthetic)
T7 chain: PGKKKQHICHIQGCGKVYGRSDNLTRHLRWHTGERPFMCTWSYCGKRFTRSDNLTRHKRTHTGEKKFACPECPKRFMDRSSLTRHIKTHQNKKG
Protocol: as §1

[13] = molecular target: T8, ZFP SBS#378 (synthetic)
T8 chain: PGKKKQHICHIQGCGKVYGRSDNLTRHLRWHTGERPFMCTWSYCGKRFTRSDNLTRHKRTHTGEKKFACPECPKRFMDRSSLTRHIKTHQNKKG
Protocol: as §1

[14] = molecular target: ZFP SBS#512 (synthetic)
ZFP SBS#512 (synthetic), sequence (chain, as listed by the source): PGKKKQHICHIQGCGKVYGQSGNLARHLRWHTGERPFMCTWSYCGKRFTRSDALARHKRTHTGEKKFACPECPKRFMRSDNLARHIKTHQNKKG
Protocol: as §1

[15] = molecular target: ZFP SBS#513 (synthetic)
ZFP SBS#513 (synthetic), sequence (chain, as listed by the source): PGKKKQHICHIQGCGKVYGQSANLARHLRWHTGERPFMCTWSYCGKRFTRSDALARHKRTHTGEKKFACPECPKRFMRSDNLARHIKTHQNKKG
Protocol: as §1

[16] = molecular target: ZFP SBS#396 (synthetic)
ZFP SBS#396 (synthetic), sequence (chain, as listed by the source): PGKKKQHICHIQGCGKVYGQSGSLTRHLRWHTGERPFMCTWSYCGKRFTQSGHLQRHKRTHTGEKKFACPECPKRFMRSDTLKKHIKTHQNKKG
Protocol: as §1

[17] = molecular target: ZFP SBS#397 (synthetic)
ZFP SBS#397 (synthetic), sequence (chain, as listed by the source): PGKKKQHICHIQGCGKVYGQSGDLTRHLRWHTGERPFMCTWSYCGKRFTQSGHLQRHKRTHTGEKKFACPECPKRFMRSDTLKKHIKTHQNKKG
Protocol: as §1

[18] = molecular target: T9, ZFP SBS#507 (synthetic)
T9 chain: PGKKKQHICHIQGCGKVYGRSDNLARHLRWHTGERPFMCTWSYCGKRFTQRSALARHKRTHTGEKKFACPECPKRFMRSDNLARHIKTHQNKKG
Protocol: as §1

[19] = molecular target: T10, ZFP SBS#508 (synthetic)
T10 chain: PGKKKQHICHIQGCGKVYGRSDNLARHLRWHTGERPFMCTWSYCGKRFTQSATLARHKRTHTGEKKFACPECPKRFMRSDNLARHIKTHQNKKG
Protocol: as §1

[20] = molecular target: ZFP SBS#510 (synthetic)
ZFP SBS#510 (synthetic), sequence (chain, as listed by the source): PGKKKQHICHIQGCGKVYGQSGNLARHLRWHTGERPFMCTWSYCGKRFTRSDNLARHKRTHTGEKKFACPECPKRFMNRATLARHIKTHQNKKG
Protocol: as §1

[21] = molecular target: ZFP SBS#511 (synthetic)
ZFP SBS#511 (synthetic), sequence (chain, as listed by the source): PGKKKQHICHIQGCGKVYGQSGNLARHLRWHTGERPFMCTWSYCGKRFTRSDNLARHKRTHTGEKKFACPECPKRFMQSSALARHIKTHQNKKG
Protocol: as §1

[22] = molecular target: T11, ZFP SBS#514 (synthetic)
T11 chain: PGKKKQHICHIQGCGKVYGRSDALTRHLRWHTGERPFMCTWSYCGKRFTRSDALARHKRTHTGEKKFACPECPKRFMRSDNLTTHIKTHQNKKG
Protocol: as §1

[23] = molecular target: T12, ZFP SBS#409 (synthetic)
T12 chain: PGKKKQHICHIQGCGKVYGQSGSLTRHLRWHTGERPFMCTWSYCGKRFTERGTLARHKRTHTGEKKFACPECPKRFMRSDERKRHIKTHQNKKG
Protocol: as §1

[24] = molecular target: T13, ZFP SBS#405 (synthetic)
T13 chain: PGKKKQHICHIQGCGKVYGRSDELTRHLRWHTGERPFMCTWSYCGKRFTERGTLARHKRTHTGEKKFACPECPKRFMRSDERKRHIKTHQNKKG
Protocol: as §1

[25] = molecular target: T14, ZFP SBS#406 (synthetic)
T14 chain: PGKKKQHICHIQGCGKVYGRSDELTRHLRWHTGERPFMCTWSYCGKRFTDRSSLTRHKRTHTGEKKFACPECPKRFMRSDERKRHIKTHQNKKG
Protocol: as §1

[26] = molecular target: T15, ZFP SBS#407 (synthetic)
T15 chain: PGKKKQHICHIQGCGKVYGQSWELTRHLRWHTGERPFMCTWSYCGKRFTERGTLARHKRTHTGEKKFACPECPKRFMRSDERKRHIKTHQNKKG
Protocol: as §1

[27] = molecular target: T16, ZFP SBS#408 (synthetic)
T16 chain: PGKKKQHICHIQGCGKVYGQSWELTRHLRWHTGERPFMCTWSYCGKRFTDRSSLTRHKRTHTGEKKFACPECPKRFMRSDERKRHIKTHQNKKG
Protocol: as §1

[28] = molecular target: T17, ZFP SBS#400 (synthetic)
T17 chain: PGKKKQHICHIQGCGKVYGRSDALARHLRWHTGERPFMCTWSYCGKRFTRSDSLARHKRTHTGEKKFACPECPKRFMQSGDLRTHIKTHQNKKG
Protocol: as §1

[29] = molecular target: ZFP SBS#344 (synthetic)
ZFP SBS#344 (synthetic), sequence (chain, as listed by the source): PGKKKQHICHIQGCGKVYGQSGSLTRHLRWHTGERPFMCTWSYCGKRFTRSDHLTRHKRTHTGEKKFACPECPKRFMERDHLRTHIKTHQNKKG
Protocol: as §1

[30] = molecular target: ZFP SBS#346 (synthetic)
Protocol: as §1

[31] = molecular target: ZFP SBS#339 (synthetic)
ZFP SBS#339 (synthetic), sequence (chain, as listed by the source): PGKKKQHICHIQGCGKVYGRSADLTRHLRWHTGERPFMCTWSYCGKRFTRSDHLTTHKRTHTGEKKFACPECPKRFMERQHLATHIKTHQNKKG
Protocol: as §1

[32] = molecular target: T18, ZFP SBS#340 (synthetic)
T18 chain: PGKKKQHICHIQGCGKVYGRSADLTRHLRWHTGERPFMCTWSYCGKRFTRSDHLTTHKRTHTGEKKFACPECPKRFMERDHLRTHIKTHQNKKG
Protocol: as §1

[33] = molecular target: ZFP SBS#337 (synthetic)
ZFP SBS#337 (synthetic), sequence (chain, as listed by the source): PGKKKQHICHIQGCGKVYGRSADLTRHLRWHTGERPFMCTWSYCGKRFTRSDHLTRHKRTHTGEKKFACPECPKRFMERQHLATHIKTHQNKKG
Protocol: as §1

[34] = molecular target: ZFP SBS#338 (synthetic)
ZFP SBS#338 (synthetic), sequence (chain, as listed by the source): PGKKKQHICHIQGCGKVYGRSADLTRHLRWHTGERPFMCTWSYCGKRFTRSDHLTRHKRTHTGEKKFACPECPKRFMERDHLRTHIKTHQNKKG
Protocol: as §1

[35] = molecular target: ZFP SBS#345 (synthetic)
Protocol: as §1

[36] = molecular target: ZFP SBS#343 (synthetic)
Protocol: as §1

[37] = molecular target: ZFP SBS#502 (synthetic, UniProt P08047)
ZFP SBS#502, sequence (P08047 other isoform, or with tags, fused parts or gaps): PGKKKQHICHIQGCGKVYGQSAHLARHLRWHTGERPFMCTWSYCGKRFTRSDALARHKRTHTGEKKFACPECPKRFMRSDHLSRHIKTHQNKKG
Protocol: as §1

[38] = molecular target: T19, ZFP SBS#390 (synthetic)
T19 chain: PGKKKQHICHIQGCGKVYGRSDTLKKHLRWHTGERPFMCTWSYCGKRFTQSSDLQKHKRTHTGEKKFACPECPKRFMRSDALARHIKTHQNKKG
Protocol: as §1

B1: GCAGAAGTC (dsDNA)
DNA 1: GCAGAAGTC
DNA 2: GACTTCTGC
Kd [1]: 3 nM

B2: GCGTGGGCA (dsDNA)
DNA 1: GCGTGGGCA
DNA 2: TGCCCACGC
Kd [2]: 5 nM

B3: GTGGGGGTT (dsDNA)
DNA 1: GTGGGGGTT
DNA 2: AACCCCCAC
Kd [3]: 8 nM

B4: GGGGCGGAGC (dsDNA)
DNA 1: GGGGCGGAGC
DNA 2: GCTCCGCCCC
Kd [4]: 0.4 nM | Kd [5]: 1.2 nM

B5: GGGGTGGCGG (dsDNA)
DNA 1: GGGGTGGCGG
DNA 2: CCGCCACCCC
Kd [6]: 300 nM

B6: GGCGAGGCAA (dsDNA)
DNA 1: GGCGAGGCAA
DNA 2: TTGCCTCGCC
Kd [7]: 2.5 nM | Kd [8]: 28 nM

B7: GCGTGGGCG (dsDNA)
DNA 1: GCGTGGGCG
DNA 2: CGCCCACGC
Kd [9]: 5 nM

B8: GTCGTGTGGC (dsDNA)
DNA 1: GTCGTGTGGC
DNA 2: GCCACACGAC
Kd [10]: 100 nM

B9: GCCGAGGAGA (dsDNA)
DNA 1: GCCGAGGAGA
DNA 2: TCTCCTCGGC
Kd [11]: 3 nM | Kd [12]: 90 nM | Kd [13]: 31 nM

B10: GAGGTGGAAG (dsDNA)
DNA 1: GAGGTGGAAG
DNA 2: CTTCCACCTC
Kd [14]: 10 nM | Kd [15]: 1.5 nM

B11: GCGGGAGCAG (dsDNA)
DNA 1: GCGGGAGCAG
DNA 2: CTGCTCCCGC
Kd [16]: 18.8 nM | Kd [17]: 25 nM

B12: GAGGTAGAGG (dsDNA)
DNA 1: GAGGTAGAGG
DNA 2: CCTCTACCTC
Kd [18]: 10 nM | Kd [19]: 10 nM

B13: GTTGAGGAAG (dsDNA)
DNA 1: GTTGAGGAAG
DNA 2: CTTCCTCAAC
Kd [20]: 100 nM | Kd [21]: 100 nM

B14: TAGGTGGTGG (dsDNA)
DNA 1: TAGGTGGTGG
DNA 2: CCACCACCTA
Kd [22]: 10 nM

B15: GCGGCCGCA (dsDNA)
DNA 1: GCGGCCGCA
DNA 2: TGCGGCCGC
Kd [23]: 50 nM | Kd [24]: 110 nM | Kd [25]: 110 nM | Kd [26]: 410 nM | Kd [27]: 380 nM

B16: TCAGTGGTGG (dsDNA)
DNA 1: TCAGTGGTGG
DNA 2: CCACCACTGA
Kd [28]: 40 nM

B17: TGCGGGGCAA (dsDNA)
DNA 1: TGCGGGGCAA
DNA 2: TTGCCCCGCA
Kd [29]: 6 nM | Kd [30]: 64 nM | Kd [31]: 64 nM | Kd [32]: 48 nM | Kd [33]: 24 nM | Kd [34]: 8 nM | Kd [35]: 96 nM | Kd [36]: 8 nM

B18: GGGGTGGGA (dsDNA)
DNA 1: GGGGTGGGA
DNA 2: TCCCACCCC
Kd [37]: 60 nM

B19: GTGGCAGCGG (dsDNA)
DNA 1: GTGGCAGCGG
DNA 2: CCGCTGCCAC
Kd [38]: 20 nM
